Measurements published in patent US8192734B2, “Compositions and methods for bone strengthening” (Cornell University, priority 2007, dated 2012).

How the values were obtained:
[1] = test system: weanling pigs fed high P diet; experiment: Examples 4-8: radiographic bone density and metacarpal histomorphometry; format: in vivo, pig; details: 8 wk
Method: As in Examples 1-3, the animal protocol was approved by Cornell Animal Care and Use Committee. An 8-week feeding trial was conducted at Cornell University Swine Research Farm. Thirty weanling pigs (Yorkshire×Hampshire×Landrace, body weight=8.6±0.5 kg) were allocated into three groups (n=10). […] were fed a corn-soy basal diet (BD)+0.25% inorganic phosphorus (iP, dicalcium phosphate). Group 2 were fed BD+0.35% iP. Group 3 were fed BD+0.35% iP+3,400 units of phytase/kg (Escherichia coli appA2, OptiPhos, JBS United, Inc., Sheridan, Ind.). The BD (Table 7) contained adequate levels of all nutrients except for P^(63), and 0.25% iP is the supplementation level recommended by NRC^(24) to meet the P needs of this age of pigs. […] Pigs were housed in an environmentally-controlled barn (20-25° C.; 12-light: 12-dark cycle), and given free access to feed and water.
After the skin and major muscles were removed, two left legs were subjected to X-ray radiography using a Faxitron machine (Model 43855A; Hewlett Packard, McMinnville, Oreg., USA). Bone radiographs of femur and metacarpals were quantified by the kodac software. The software counted the total number of pixels. Thereafter, the 3rd and 4th metacarpals and femurs were collected to measure length, weight, height, and width after removing the remaining muscle and connective tissue. After the X-ray analysis, the two left legs were used for bone mechanical and mineral testing. Bone mechanical properties were determined by a three-point bending test (ASAE Standard S459 1992) using an Instron 4500 Machine Universal Testing Instrument (Model 1122, Instron, Canton, Mass.) with Instron Series IX Automated Materials Testing System Software (version 4.05). During testing, force was applied to the center of the bone held by supports 2.0 cm apart for metacarpals and 3.3 cm apart for femurs. The crosshead speed was set at 50 mm/min and the sampling rate was at 10 points/sec. The extrinsic parameters (stiffness/slope, maximum load, energy to break, maximum displacement) were derived from the force-displacement curve. Bone breaking strength was calculated with the adjustment of bone weight, and the average strength of the 3rd and 4th metacarpal was used as the metacarpal strength for each pig.
Metacarpals (4th) from right foot of pigs (n=5 for each group) were quickly fixed by 10% formalin for histology, decalcified, embedded in paraffin sagittally serially sectioned through the midline (8 μm), and stained with Masson's trichrome as previously described^(74). Variation of bone matrix mineralization was detected by modified tetrachrome method^(75). Sulfated proteoglycans were detected by alcian blue staining^(76) and counter staining with Mayer's acid haematoxylin. PCI software—CIMAGING System (Model 1280, Compix Inc., Cranberry, Pa.)—was applied to measure bone surface, osteoid, bone volume, trabecular thickness, number, and separation, and proteoglycans surface. Trabecular size and separation distances were measured by the software measurement scale. Trabecular numbers were counted within a specified field. For proteoglycans measurement, the total area of trabecular bone was first captured to define the region of interest (ROI). Then, within the ROI the blue color area of proteoglycans was captured and its area measured to define the object area. For osteoid measurement, the first cortical bone surface was the object. The area fraction of the deep green in the periosteal area was expressed as: Area fraction (%)=Object area/Region of interest (ROI)×100.

[2] = test system: pigs fed P-adequate corn-soybean meal basal diet; experiment: Expt 2: metatarsal and femur mineral concentrations (ICP); format: in vivo, pig
Method: After the breaking strength analysis, samples (˜100 to 200 mg) of metatarsals in both experiments and femur in Experiment 2 from the right legs were used for mineral analysis. Cortical bones were isolated after removing attached connective tissue using a stainless steel scalpel and collecting individual shards using needle-nosed pliers with plastic-covered clamps. […] Concentrations of individual elements in the dried bone samples were measured using inductively coupled argon plasma spectrophotometer (ICAP 61E Trace Analyzer, Thermo Jarell Ash corporation, Franklin, Mass.)(31). Samples were digested in a mixture of HNO3 and HClO4 (9:1, vol/vol), and then diluted in 5% HNO3 before analysis.

[3] = 0.35% iP + Sr 50 mg/kg + phytase 3,400 U/kg, P<0.001
[4] = phytase 3,400 U/kg into the 0.35% iP diet, P<0.001
[5] = phytase 3,400 U/kg into the 0.35% iP diet, P<0.05
[6] = phytase 2000 U/kg and/or Sr 50 mg/kg, n=6

B1: Phytase: Escherichia coli AppA2 phytase (OptiPhos, JBS United, Inc.), added to diets at feed mixing; AppA2 is SEQ ID NO: 2 (protein, listed as Escherichia coli)
chain: MKAILIPFLSLLIPLTPQSAFAQSEPELKLESVVIVSRHGVRAPTKATQLMQDVTPDAWPTWPVKLGWLTPRGGELIAYLGHYQRQRLVADGLLAKKGCPQPGQVAIIADVDERTRKTGEAFAAGLAPDCAITVHTQADTSSPDPLFNPLKTGVCQLDNANVTDAILSRAGGSIADFTGHRQTAFRELERVLNFSQLNLCLNREKQDESCSLTQALPSELKVSADNVSLTGAVSLASMLTEIFLLQQAQGMPEPGWGRITDSHQWNTLLSLHNAQFYLLQRTPEVARSRATPLLDLIMAALTPHPPQKQAYGVTLPTSVLFIAGHDTNLANLGGALELNWTLPGQPDNTPPGGELVFERWRRLSDNSQWIQVSLVFQTLQQMRDKTPLSLNTPPGEVKLTLAGCEERNAQGMCSLAGFTQIVNEARIPACSL
improvement of femur bone density (radiograph image pixel numbers) vs 0.35% iP [1, 3]: 28%
improvement of metacarpus bone density (radiograph image pixel numbers) vs 0.35% iP [1, 3]: 20%
increase in metacarpal bone volume vs 0.35% iP [1, 3]: 38%
enhancement of osteoid thickness in the periosteal area [1, 4]: 60%
increase of sulfated proteoglycans in cancellous bone [1, 4]: 18%
decrease in trabecular separation, metacarpal bone [1, 5]: 37%
increase in trabecular density, metacarpal bone [1, 5]: 42%
increase in trabecular thickness, metacarpal bone [1, 5]: 51%
elevation of metatarsal concentration of Sr ([2]; main effect of phytase 2,000 U/kg, P<0.07): 11%
femur Ca concentration [2, 6]: 300.3 g/kg
femur Cr concentration [2, 6]: 7.2 mg/kg
femur Fe concentration [2, 6]: 7.2 mg/kg
femur Mg concentration [2, 6]: 5.3 g/kg
femur Mn concentration [2, 6]: 0.8 mg/kg
femur Na concentration [2, 6]: 8.3 g/kg
femur P concentration [2, 6]: 178.6 g/kg
femur S concentration [2, 6]: 1.0 g/kg
femur Sr concentration [2, 6]: 94.3 mg/kg
femur Zn concentration [2, 6]: 220.1 mg/kg
metatarsal Ca concentration [2, 6]: 187.4 g/kg
metatarsal Cr concentration [2, 6]: 20.5 mg/kg
metatarsal Fe concentration [2, 6]: 15.3 mg/kg
metatarsal Mg concentration [2, 6]: 3.5 g/kg
metatarsal Mn concentration [2, 6]: 2.0 mg/kg
metatarsal Na concentration [2, 6]: 7.4 g/kg
metatarsal P concentration [2, 6]: 91.8 g/kg
metatarsal S concentration [2, 6]: 0.9 g/kg
metatarsal Sr concentration [2, 6]: 73.5 mg/kg
metatarsal Zn concentration [2, 6]: 152.3 mg/kg
